The nature of data set [1]: stability analysis, lyophilized vs solution (DTNB and SEC-HPLC). Format: physicochemical. The protocol: Prior work, e.g. WO 2006/090127, teaches compositions for maintenance of thioredoxin in the reduced state. Significant experimentation was required to derive compositions able to keep thioredoxin reduced during storage, and these compositions were complex and required saccharide derivatives and EDTA as excipients. […] ORP-100 and ORP100S proteins were reduced with 100 mM DTT and exchanged over a NAP-5 column into volatile 20 mM ammonium acetate buffer at pH 5.5 to remove residual reductant. Half of the material was frozen at −80° C. then lyophilized while the remainder was kept in solution at either 5° C. or 40° C. for various time points (“PH5.5”). Lyophilized protein was reconstituted back into 20 mM ammonium acetate pH 5.5 immediately prior to evaluation at each time point (“Lyophilized”). Stability was assessed by measuring both free SH groups (DTNB chromogenic assay) and the percent monomers (SEC-HPLC).
For FIG. 3: PH5.5: ORP-100 or ORP100S protein maintained in liquid formulation of 20 mM ammonium acetate, pH 5.5 for 0, 3, 7, 14, 21, 28, 90, or 180 days. Lyophilized: ORP-100 or ORP100S protein stored in the lyophilized form at 5° C. or 40° C. for the 0, 3, 7, 14, 21, 28, 90, or 180 days and assayed following reconstitution in 20 mM ammonium acetate, pH 5.5. Percent free sulfhydryl (reduction state) at 5° C. Second panel: Percent monomer determined by SEC assay at 5° C. Third panel: Percent free sulfhydryl at 40° C. Fourth panel: Percent monomer determined by SEC assay at 40° C.
In general terms: SEC sorts molecules by how far they enter the pores of the column.

Data set [2] in a line: thiol pKa (acid-dissociation constant). To be noted: verified experimentally, data not shown. Format: physicochemical. From the text:
The human CF airway surface liquid is approximately 0.8 pH units more acidic than that of unaffected individuals due to the loss of bicarbonate-mediated buffering of proton secretion (Garland A L, Walton W G, Coakley R D, et al., 2013, Molecular basis for pH-dependent mucosal dehydration in cystic fibrosis airways. PNAS 110:15973-8; Shah V S, Meyerholz D K, Tang X X, et al., 2016, Airway acidification initiates host defense abnormalities in cystic fibrosis mice, Science 351:503-7). This has consequences for the clinical use of reducing agents to treat condensed, abnormal mucus. […] Cys thiol pKa values range from pH 8.5 (cysteamine) to pH 9.5 (NAC). In marked contrast to these classical thiols, the structurally-stabilized pKa of the Trx active site Cys32 is two to three logs lower (pH 6.1-6.3), allowing high activity even at acidic CF airway pH (FIG. 2).

For data set [3] the following is noted: material purified with removal of the red fraction, 68.4 mg/ml.
Data set [4] can be described thus: DTNB assay of reduction state (free SH groups). To be noted: for % reduced (68 hrs): 25° C., red fraction removed. Type of data set: physicochemical. The protocol:
Functional assays 1. Reduction state of ORP100S was quantified using DTNB which reacts with free SH groups resulting in a yellow color change at 412 nm. Fifty microliters of 2.5 mM rhTrx was added to a 96-well plate, followed by 175 microliters of sample buffer and 25 microliters of 6 mM DTNB. After reactions were initiated by the addition of DTNB, change in kinetic absorbance at 412 nm due to DTNB reduction was monitored spectrophotometrically at 30° C. ORP100S concentration was determined by A280 (Nanodrop) using the extinction coefficient of human Trx-1 (7,000). The actual concentrations of free sulfhydryl groups were calculated based on the absorbance at 412 nm and the extinction coefficient of DTNB (14,150) in order to determine the reduction state as percentage of free sulfhydryl. […] 2. Percent of free monomer ORP100S in solution was determined using SEC. Samples were analyzed on a BioBasic S-300 250×4.6 column (Thermo Scientific) run on an Agilent 1100 HPLC system. The SEC-HPLC mobile phase buffer consisted of 40 mM ammonium acetate (pH 5.5), 2 mM EDTA and 450 mM NaCl. Low pH minimized dimerization while the 450 mM NaCl concentration improved resolution. The flow rate was 0.35 mL/min and absorbance was monitored at 280 nm. The length of each run was 20 minutes. The ORP100S monomer percentage was determined by integration of the area under the peak of the monomeric fraction divided by the total area under the curve of the chromatogram. 3. Disulfide bond reduction activity of ORP100S was quantified by assaying the reduction state of a small protein (human insulin) which in its heterodimeric form contains two intermolecular and one intramolecular disulfide, all three of which are known to be suitable thioredoxin substrates. Insulin reduction has classically been used to quantify thioredoxin activity by absorbance change following addition of NADPH and TrxR (Holmgren A., 1979, Thioredoxin catalyzes the reduction of insulin disulfides by dithiothreitol and dihydrolipoamide, J Biol Chem 254:9627-32). Such an approach is not suitable for monothiol C35S thioredoxins ORP-100 and ORP100S due to 1) the lack of cycling resulting from stoichiometric covalent linkage to the disulfide bond substrate and 2) the inability of NADPH and TrxR to reduce Cys32 of the oxidized monothiol Trx active site. Consequently, a new assay was developed based on the use of reverse-phase (RP) HPLC to monitor the rate of conversion of disulfide-bonded insulin heterodimers to monomeric forms. The two chains of human insulin have a total of six Cys residues which form three disulfide bonds in its mature structure. When ORP100S in the reduced form is incubated with dimeric insulin it reacts with these disulfide bonds to disrupt them, simultaneously forming covalent linkages to the ORP100S Cys32. […] The ORP100S samples were incubated with 10 mg/mL insulin for various time points (0-90 min) and the reactions were stopped by addition of iodacetic acid (IA) and trifluoroacetic acid (TFA). Relative activity at each time point was determined from changes in the area under the insulin heterodimer peak following separation over RP-HPLC (Agilent 1100) using an Intrada WP-RP 50×3 (Imtakt) column. Buffer A was 0.1% TFA and Buffer B was 0.1% TFA in acetonitrile. The gradient was […] in 5 min followed by 30 to 60% B in 45 min, then 60 to 80% B for an additional 5 min. The flow rate was 0.2 mL/min and absorbance was measured at 280 nm. In order to evaluate the change in the intact insulin molecule a time 0 baseline was first established using 1 M IA and 0.1% TFA without the addition of ORP100S. The area under the intact insulin heterodimer peak was then determined and set as equivalent to 100%. After the reaction with ORP100S the area of the intact insulin peak (corresponding to retention time) was measured. The percent reduction in intact insulin was then calculated from the decrease in the area following reduction divided by the area at time 0 multiplied by 100.

B1: ORP100S: thioredoxin with monothiol active site, Cys35 and non-active Cys 62, 69 and 73 substituted with serine (SEQ ID NO:29) (protein)
chain: MVKQIESKTAFQEALDAAGDKLVVVDFSATWCGPSKMIKPFFHSLSEKYSNVIFLEVDVDDSQDVASESEVKSMPTFQFFKKGQKVGEFSGANKEKLEATINELV
modifications: synthetic peptide motif
For the molecule B1, the “storage stability (free SH, percent monomer)” value in data set [1] (lyophilized form, six months at 40° C.) was “excellent storage stability”. In data set [1] (particularly first week of storage in liquid formulation), the “monomer stability by SEC-HPLC vs. ORP-100” value was “slightly better monomer stability”. In data set [2], the “pKa compared to native Trx” value is on record as “same pKa as native Trx”. Further, the “Endotoxin level (Endosafe PTS)” value in data set [3] turned out to be 0.002 EU/mg. The “% reduced (68 hrs)” value in data set [4] (70 mg/mL in PBS) was found to be 109%; in data set [4] (80 mg/mL in PBS), 87%; in data set [4] (90 mg/mL in PBS), 91%; in data set [4] (100 mg/mL in PBS), 91%; in data set [4] (110 mg/mL in PBS), 102%. Also, the DTNB % reduced in data set [4] (Ox:Red 0:100 mixture) is 86%; in data set [4] (Ox:Red 25:75 mixture), 73%; in data set [4] (Ox:Red 50:50 mixture) it was 55%; in data set [4] (Ox:Red 75:25 mixture), 49%; in data set [4] (Ox:Red 100:0 mixture), 22%.

For the origin of these results see patent publication US20230071765A1, “COMPOSITIONS HAVING THIOREDOXIN ACTIVITY AND RELATED METHODS” (ORPRO THERAPEUTICS, INC., priority 2020, published 2023).
